# Assay results taken from publication PMC314469, “Protein Interaction Networks by Proteome Peptide Scanning” (PLoS Biology, 2004).
# T1: Rvs167 SH3 (RV167_YEAST), P39743
# T1 chain: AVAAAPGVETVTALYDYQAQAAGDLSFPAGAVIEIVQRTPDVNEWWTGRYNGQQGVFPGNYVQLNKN
# T2: Yhr016c SH3 (YSC84_YEAST), P32793
# T2 chain: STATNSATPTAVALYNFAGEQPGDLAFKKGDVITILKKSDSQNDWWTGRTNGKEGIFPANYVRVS
# T3: Yfr024 SH3 (LSB3_YEAST), P43603
# T3 chain: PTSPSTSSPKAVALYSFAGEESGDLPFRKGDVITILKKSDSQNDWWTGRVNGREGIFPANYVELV
# T4: Myo5 SH3 (MYO5_YEAST), Q04439
# T4 chain: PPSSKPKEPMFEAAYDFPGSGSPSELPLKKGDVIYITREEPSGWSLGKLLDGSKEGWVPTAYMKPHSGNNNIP
# T5: Boi1 SH3 (BOI1_YEAST), P38041
# T5 chain: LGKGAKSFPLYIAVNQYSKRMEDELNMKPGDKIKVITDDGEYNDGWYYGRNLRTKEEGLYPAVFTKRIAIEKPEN
# T6: Boi2 SH3 (BOI2_YEAST), P39969
# T6 chain: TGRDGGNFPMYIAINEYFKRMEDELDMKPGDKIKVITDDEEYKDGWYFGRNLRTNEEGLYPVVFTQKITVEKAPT
# Target: T1, Rvs167 SH3 (RV167_YEAST), P39743
# Experiment: SPOT array
row,"normalised SPOT signal, Boehringer light units (BLU); mean over the file's lines of this peptide",Binder
1,369,SIIPRIFPSTPGTI [YGL233W 770-783]
2,162,SILRKSSPEEPFMS [YNR023W 296-309]
3,21500,SETARKVPPIPTQI [YPL249C 247-260]
4,100,SFVTKYLPAAPVGS [YJR019C 24-37]
5,250,SFIRKRAPTPPAPS [YBR108W 721-734]
6,235,SENGRLTPGLPRSY [YPR111W 42-55]
7,87.9,SERRKALPKEPKKL [YIR010W 418-431]
8,147,SANGKFIPSRPAPK [YHL007C 465-478]
9,28300,SILNRSVPKRPTID [YAL017W 1333-1346]
10,137,SGSGRRYPQTPSYY [YJL095W 698-711]
11,185,SKIKRSRPPPPPMD [YDR239C 144-157]
12,207,SEMHRAAPETPRSI [YKL050C 40-53]
13,54.5,SDNSKSEPLPPVIT [YFR019W 1795-1808]
14,116,SEAKRKFPEAPEVP [YNL121C 455-468]

# Target: T2, Yhr016c SH3 (YSC84_YEAST), P32793
# Experiment: SPOT array
row,"normalised SPOT signal, Boehringer light units (BLU); mean over the file's lines of this peptide",Binder
1,32.6,SIIPRIFPSTPGTI [YGL233W 770-783]
2,22.1,SILRKSSPEEPFMS [YNR023W 296-309]
3,8100,SETARKVPPIPTQI [YPL249C 247-260]
4,82.1,SFVTKYLPAAPVGS [YJR019C 24-37]
5,99.6,SFIRKRAPTPPAPS [YBR108W 721-734]
6,52.2,SENGRLTPGLPRSY [YPR111W 42-55]
7,49.3,SERRKALPKEPKKL [YIR010W 418-431]
8,14.7,SANGKFIPSRPAPK [YHL007C 465-478]
9,11900,SILNRSVPKRPTID [YAL017W 1333-1346]
10,226,SGSGRRYPQTPSYY [YJL095W 698-711]
11,123,SKIKRSRPPPPPMD [YDR239C 144-157]
12,140,SEMHRAAPETPRSI [YKL050C 40-53]
13,32.7,SDNSKSEPLPPVIT [YFR019W 1795-1808]
14,19.7,SEAKRKFPEAPEVP [YNL121C 455-468]

# Target: T3, Yfr024 SH3 (LSB3_YEAST), P43603
# Experiment: SPOT array
row,"normalised SPOT signal, Boehringer light units (BLU); mean over the file's lines of this peptide",Binder
1,448,SIIPRIFPSTPGTI [YGL233W 770-783]
2,327,SILRKSSPEEPFMS [YNR023W 296-309]
3,19400,SETARKVPPIPTQI [YPL249C 247-260]
4,53.3,SFVTKYLPAAPVGS [YJR019C 24-37]
5,1500,SFIRKRAPTPPAPS [YBR108W 721-734]
6,240,SENGRLTPGLPRSY [YPR111W 42-55]
7,649,SERRKALPKEPKKL [YIR010W 418-431]
8,539,SANGKFIPSRPAPK [YHL007C 465-478]
9,39200,SILNRSVPKRPTID [YAL017W 1333-1346]
10,638,SGSGRRYPQTPSYY [YJL095W 698-711]
11,1450,SKIKRSRPPPPPMD [YDR239C 144-157]
12,904,SEMHRAAPETPRSI [YKL050C 40-53]
13,21.6,SDNSKSEPLPPVIT [YFR019W 1795-1808]
14,18.5,SEAKRKFPEAPEVP [YNL121C 455-468]

# Target: Sho1 SH3 (SHO1_YEAST), P40073
# Sequence (P40073 295-366): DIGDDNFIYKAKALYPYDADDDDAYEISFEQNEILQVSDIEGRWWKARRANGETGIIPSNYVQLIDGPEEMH
# Experiment: SPOT array
row,"normalised SPOT signal, Boehringer light units (BLU); mean over the file's lines of this peptide",Binder
1,632,SIIPRIFPSTPGTI [YGL233W 770-783]
2,54.4,SILRKSSPEEPFMS [YNR023W 296-309]
3,29.9,SETARKVPPIPTQI [YPL249C 247-260]
4,2510,SFVTKYLPAAPVGS [YJR019C 24-37]
5,208,SFIRKRAPTPPAPS [YBR108W 721-734]
6,35.8,SENGRLTPGLPRSY [YPR111W 42-55]
7,29500,SERRKALPKEPKKL [YIR010W 418-431]
8,75.2,SANGKFIPSRPAPK [YHL007C 465-478]
9,96.4,SILNRSVPKRPTID [YAL017W 1333-1346]
10,168,SGSGRRYPQTPSYY [YJL095W 698-711]
11,167,SKIKRSRPPPPPMD [YDR239C 144-157]
12,95.5,SEMHRAAPETPRSI [YKL050C 40-53]
13,23.8,SDNSKSEPLPPVIT [YFR019W 1795-1808]
14,3.8,SEAKRKFPEAPEVP [YNL121C 455-468]

# Target: T4, Myo5 SH3 (MYO5_YEAST), Q04439
# Experiment: SPOT array
row,"normalised SPOT signal, Boehringer light units (BLU); mean over the file's lines of this peptide",Binder
1,369,SIIPRIFPSTPGTI [YGL233W 770-783]
2,144,SILRKSSPEEPFMS [YNR023W 296-309]
3,420,SETARKVPPIPTQI [YPL249C 247-260]
4,215,SFVTKYLPAAPVGS [YJR019C 24-37]
5,878,SFIRKRAPTPPAPS [YBR108W 721-734]
6,170,SENGRLTPGLPRSY [YPR111W 42-55]
7,200,SERRKALPKEPKKL [YIR010W 418-431]
8,6760,SANGKFIPSRPAPK [YHL007C 465-478]
9,133,SILNRSVPKRPTID [YAL017W 1333-1346]
10,436,SGSGRRYPQTPSYY [YJL095W 698-711]
11,5410,SKIKRSRPPPPPMD [YDR239C 144-157]
12,322,SEMHRAAPETPRSI [YKL050C 40-53]
13,130,SDNSKSEPLPPVIT [YFR019W 1795-1808]
14,393,SEAKRKFPEAPEVP [YNL121C 455-468]

# Target: T5, Boi1 SH3 (BOI1_YEAST), P38041
# Experiment: SPOT array
row,"normalised SPOT signal, Boehringer light units (BLU); mean over the file's lines of this peptide",Binder
1,176,SIIPRIFPSTPGTI [YGL233W 770-783]
2,132,SILRKSSPEEPFMS [YNR023W 296-309]
3,73,SETARKVPPIPTQI [YPL249C 247-260]
4,27,SFVTKYLPAAPVGS [YJR019C 24-37]
5,3210,SFIRKRAPTPPAPS [YBR108W 721-734]
6,64.5,SENGRLTPGLPRSY [YPR111W 42-55]
7,1170,SERRKALPKEPKKL [YIR010W 418-431]
8,128,SANGKFIPSRPAPK [YHL007C 465-478]
9,958,SILNRSVPKRPTID [YAL017W 1333-1346]
10,593,SGSGRRYPQTPSYY [YJL095W 698-711]
11,1250,SKIKRSRPPPPPMD [YDR239C 144-157]
12,151,SEMHRAAPETPRSI [YKL050C 40-53]
13,0,SDNSKSEPLPPVIT [YFR019W 1795-1808]
14,66.4,SEAKRKFPEAPEVP [YNL121C 455-468]

# Target: T6, Boi2 SH3 (BOI2_YEAST), P39969
# Experiment: SPOT array
row,"normalised SPOT signal, Boehringer light units (BLU); mean over the file's lines of this peptide",Binder
1,22.2,SIIPRIFPSTPGTI [YGL233W 770-783]
2,43,SILRKSSPEEPFMS [YNR023W 296-309]
3,34.5,SETARKVPPIPTQI [YPL249C 247-260]
4,18.9,SFVTKYLPAAPVGS [YJR019C 24-37]
5,30.6,SFIRKRAPTPPAPS [YBR108W 721-734]
6,30.7,SENGRLTPGLPRSY [YPR111W 42-55]
7,43.6,SERRKALPKEPKKL [YIR010W 418-431]
8,5.4,SANGKFIPSRPAPK [YHL007C 465-478]
9,8.2,SILNRSVPKRPTID [YAL017W 1333-1346]
10,41.3,SGSGRRYPQTPSYY [YJL095W 698-711]
11,35.1,SKIKRSRPPPPPMD [YDR239C 144-157]
12,28.9,SEMHRAAPETPRSI [YKL050C 40-53]
13,1.4,SDNSKSEPLPPVIT [YFR019W 1795-1808]
14,7,SEAKRKFPEAPEVP [YNL121C 455-468]
